Test results as given in US20170296640A1 (IMMATICS BIOTECHNOLOGIES, published 2017).

Biological target: T1, HLA-A*02:01 (peptide-receptive MHC class I monomer after UV cleavage of the UV-sensitive ligand) (human)
T1 construct: MHC monomers loaded by UV-ligand exchange and captured on streptavidin plates
Test: UV ligand-exchange ELISA; exchange yield grade (+ >=10%, ++ >=20%, +++ >=50%, ++++ >=75%)
Source text: Candidate peptides for T cell based therapies according to the present invention were further tested for their MHC binding capacity (affinity). The individual peptide-MHC complexes were produced by UV-ligand exchange, where a UV-sensitive peptide is cleaved upon UV-irradiation, and exchanged with the peptide of interest as analyzed. Only peptide candidates that can effectively bind and stabilize the peptide-receptive MHC molecules prevent dissociation of the MHC complexes. To determine the yield of the exchange reaction, an ELISA was performed based on the detection of the light chain (β2m) of stabilized MHC complexes. The assay was performed as generally described in Rodenko et al. (Rodenko et al., 2006).
96 well MAXISorp plates (NUNC) were coated over night with 2 ug/ml streptavidin in PBS at room temperature, washed 4× and blocked for 1 h at 37° C. in 2% BSA containing blocking buffer. Refolded HLA-A*02:01/MLA-001 monomers served as standards, covering the range of 15-500 ng/ml. Peptide-MHC monomers of the UV-exchange reaction were diluted 100 fold in blocking buffer. Samples were incubated for 1 h at 37° C., washed four times, incubated with 2 ug/ml HRP conjugated anti-β2m for 1 h at 37° C., washed again and detected with TMB solution that is stopped with […]. Absorption was measured at 450 nm. Candidate peptides that show a high exchange yield (preferably higher than 50%, most preferred higher than 75%) are generally preferred for a generation and production of antibodies or fragments thereof, and/or T cell receptors or fragments thereof, as they show sufficient avidity to the MHC molecules and prevent dissociation of the MHC complexes.

Row | Binder | peptide exchange yield
1 | ELCDIILRV [ELCDIILRV (SEQ ID NO: 119)] | 50 to 75%
2 | GLITQVDKL [GLITQVDKL (SEQ ID NO: 144)] | 50 to 75%
3 | NLINNIFEL [NLINNIFEL (SEQ ID NO: 138)] | ≥ 75%
4 | KLMNIQQQL [KLMNIQQQL (SEQ ID NO: 154)] | 50 to 75%
5 | HLVPASWKL [HLVPASWKL (SEQ ID NO: 13)] | 50 to 75%
6 | ICAGHVPGV [ICAGHVPGV (SEQ ID NO: 148)] | 50 to 75%
7 | FIQQERFFL [FIQQERFFL (SEQ ID NO: 137)] | 50 to 75%
8 | YQYPFVLGL [YQYPFVLGL (SEQ ID NO: 110)] | ≥ 75%
9 | KLFDASPTFFA [KLFDASPTFFA (SEQ ID NO: 128)] | 50 to 75%
10 | ILVKQSPML [ILVKQSPML (SEQ ID NO: 151)] | 50 to 75%
11 | GLDTVVALL [GLDTVVALL (SEQ ID NO: 11)] | 50 to 75%
12 | YLLDTLLSL [YLLDTLLSL (SEQ ID NO: 111)] | 50 to 75%
13 | ALTGLQFQL [ALTGLQFQL (SEQ ID NO: 135)] | 50 to 75%
14 | ALEELTGFREL [ALEELTGFREL (SEQ ID NO: 133)] | 20 to 50%
15 | KVQDVLHQV [KVQDVLHQV (SEQ ID NO: 158)] | 50 to 75%
16 | FLYEDSKSVRL [FLYEDSKSVRL (SEQ ID NO: 142)] | 50 to 75%
17 | IIIEDLLEA [IIIEDLLEA (SEQ ID NO: 15)] | ≥ 75%
18 | VLYELLQYI [VLYELLQYI (SEQ ID NO: 106)] | ≥ 75%
19 | KVLEFLAKV [KVLEFLAKV (SEQ ID NO: 157)] | 50 to 75%
20 | KLLKGIYAI [KLLKGIYAI (SEQ ID NO: 153)] | 50 to 75%
21 | TLHAVDVTL [TLHAVDVTL (SEQ ID NO: 143)] | 50 to 75%
22 | FLFEDFVEV [FLFEDFVEV (SEQ ID NO: 140)] | 50 to 75%

Row | Binder | peptide exchange yield
23 | GLLHEVVSL [GLLHEVVSL (SEQ ID NO: 145)] | 50 to 75%
24 | AISEAQESV [AISEAQESV (SEQ ID NO: 122)] | 20 to 50%
25 | ALLSAFVQL [ALLSAFVQL (SEQ ID NO: 123)] | 50 to 75%
26 | GLLQQPPAL [GLLQQPPAL (SEQ ID NO: 146)] | 50 to 75%
27 | VLIEETDQL [VLIEETDQL (SEQ ID NO: 131)] | 20 to 50%
28 | FLGELTLQL [FLGELTLQL (SEQ ID NO: 141)] | 50 to 75%
29 | FLGVVVPTV [FLGVVVPTV (SEQ ID NO: 124)] | 50 to 75%
30 | ILSEKEYKL [ILSEKEYKL (SEQ ID NO: 150)] | 50 to 75%
31 | VLDGMIYAI [VLDGMIYAI (SEQ ID NO: 118)] | 50 to 75%
32 | SLFAAISGMIL [SLFAAISGMIL (SEQ ID NO: 102)] | 50 to 75%
33 | VLLGTTWAL [VLLGTTWAL (SEQ ID NO: 120)] | 50 to 75%
34 | YLFQFSAAL [YLFQFSAAL (SEQ ID NO: 109)] | 50 to 75%
35 | SLFEASQQL [SLFEASQQL (SEQ ID NO: 129)] | 50 to 75%
36 | ALGRLGILSV [ALGRLGILSV (SEQ ID NO: 134)] | 50 to 75%
37 | VQAVSIPEV [VQAVSIPEV (SEQ ID NO: 107)] | 50 to 75%
38 | GLSEYQRNFL [GLSEYQRNFL (SEQ ID NO: 147)] | 50 to 75%
39 | FLLVGTQIDL [FLLVGTQIDL (SEQ ID NO: 10)] | 50 to 75%
40 | FVIDSFEEL [FVIDSFEEL (SEQ ID NO: 113)] | 50 to 75%
41 | LLSGQLPTI [LLSGQLPTI (SEQ ID NO: 1)] | 50 to 75%
42 | VLLGLPLLV [VLLGLPLLV (SEQ ID NO: 104)] | 50 to 75%
43 | KLMTSLVKV [KLMTSLVKV (SEQ ID NO: 155)] | 50 to 75%
44 | GLLLLVPLL [GLLLLVPLL (SEQ ID NO: 12)] | 50 to 75%

Row | Binder | peptide exchange yield
45 | VIFSYVLGV [VIFSYVLGV (SEQ ID NO: 130)] | 50 to 75%
46 | SLQDHLEKV [SLQDHLEKV (SEQ ID NO: 103)] | 50 to 75%
47 | ILNPVTTKL [ILNPVTTKL (SEQ ID NO: 149)] | 50 to 75%
48 | FLASPLVAI [FLASPLVAI (SEQ ID NO: 139)] | ≥ 75%
49 | FIFGIVHLL [FIFGIVHLL (SEQ ID NO: 136)] | 50 to 75%
50 | FLAILPEEV [FLAILPEEV (SEQ ID NO: 112)] | 50 to 75%
51 | FVAPPTAAV [FVAPPTAAV (SEQ ID NO: 125)] | 50 to 75%
52 | VLATILAQL [VLATILAQL (SEQ ID NO: 117)] | ≥ 75%
53 | KIMYTLVSV [KIMYTLVSV (SEQ ID NO: 152)] | 20 to 50%
54 | HLMEENMIVYV [HLMEENMIVYV (SEQ ID NO: 127)] | 50 to 75%
55 | YLTGYNFTL [YLTGYNFTL (SEQ ID NO: 121)] | 50 to 75%
56 | LLLSDSGFYL [LLLSDSGFYL (SEQ ID NO: 159)] | 50 to 75%
57 | GLSDISPST [GLSDISPST (SEQ ID NO: 114)] | 20 to 50%
58 | LLSDPTPGA [LLSDPTPGA (SEQ ID NO: 14)] | 20 to 50%
59 | VLQDQVDEL [VLQDQVDEL (SEQ ID NO: 132)] | 20 to 50%
60 | KMLEDDLKL [KMLEDDLKL (SEQ ID NO: 156)] | 50 to 75%
61 | LLIDIIHFL [LLIDIIHFL (SEQ ID NO: 115)] | ≥ 75%
62 | YLAPENGYLM [YLAPENGYLM (SEQ ID NO: 108)] | 50 to 75%
63 | SLDQSTWNV [SLDQSTWNV (SEQ ID NO: 101)] | ≥ 75%
64 | VLTPVILQV [VLTPVILQV (SEQ ID NO: 105)] | 50 to 75%
65 | SLLDNLLTI [SLLDNLLTI (SEQ ID NO: 116)] | 50 to 75%
66 | LLPPPSPAA [LLPPPSPAA (SEQ ID NO: 160)] | 50 to 75%
